Tests used:
[1] = target: T1, TMEW1 (TMEFF2-FL-ECD-His-Avitag) (human, UniProt Q9UIK5 41-320); test: Biacore 8K SPR, mAb captured on anti-human Fc, single cycle kinetics
T1 construct: Human TMEFF2 ECD with C-terminal G3S, 6xHis tag and Avi-tag, all in the entry; also called TMEFF2 ECD
T1 sequence: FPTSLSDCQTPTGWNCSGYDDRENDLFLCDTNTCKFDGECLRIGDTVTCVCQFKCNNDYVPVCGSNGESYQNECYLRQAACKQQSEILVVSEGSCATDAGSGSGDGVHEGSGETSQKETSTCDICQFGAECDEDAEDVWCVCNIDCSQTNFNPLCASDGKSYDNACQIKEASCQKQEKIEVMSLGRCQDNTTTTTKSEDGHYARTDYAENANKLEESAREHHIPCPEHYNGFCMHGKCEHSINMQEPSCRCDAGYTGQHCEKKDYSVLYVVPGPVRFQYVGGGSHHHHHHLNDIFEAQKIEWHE
Method: The binding of anti-TMEFF2 mAbs to human TMEFF2 ECD was measured by Biacore 8K SPR. The format of the assay was to capture the mAbs using a high density anti-human Fc surface, then inject human TMEFF2 concentration titration using a single cycle kinetics method. […] The mAbs were captured on the anti-human Fc IgG surface at 0.5 μg/ml (˜200-300 RU) on flow cell 2. The running buffer was then changed to HBSP+100 ug/ml BSA. TMEFF2 ECD at 30 nM concentration in 3-fold dilution series was injected from low to high concentration using single cycle kinetics method. The off-rate was monitored 30 minutes after the last or highest concentration injection and then the surface was regenerated using 0.8% phosphoric acid (Bio-Rad). A buffer blank run, capturing the same mAbs and using the same conditions of sample run was also completed. The raw data were processed by subtracting two sets of reference data from the response data: 1) reference flow cell 1 subtracted from sample flow cell 2 and 2) buffer blank run from experimental run. The processed data at all concentrations for each mAb were globally fit to a 1:1 simple Langmuir binding model to extract estimates of the kinetic (kon, koff) and affinity (KD) constants.

Rh-CD19 = target: T2, Rh-CD19 (UniProt P15391 20-291, limits assumed); test: Biacore 8K SPR, antibody over immobilised protein
T2 construct: rh read as recombinant human
T2 sequence (looked up): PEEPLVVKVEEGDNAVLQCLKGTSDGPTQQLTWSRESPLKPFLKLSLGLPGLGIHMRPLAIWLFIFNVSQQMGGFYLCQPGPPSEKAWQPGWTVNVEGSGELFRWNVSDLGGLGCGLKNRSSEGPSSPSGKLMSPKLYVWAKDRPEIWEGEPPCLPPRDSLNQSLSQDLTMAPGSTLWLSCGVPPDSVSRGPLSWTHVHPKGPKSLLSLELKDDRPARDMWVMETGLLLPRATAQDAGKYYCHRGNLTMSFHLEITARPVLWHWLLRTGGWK
Method: (§1) Non-specific binding of the lead molecule to unrelated surfaces is determined by biosensor technology (Biacore 8K). Antibody is passed over SPR surfaces coated with unrelated proteins. […] Irrelevant surfaces include negatively charged protein (Soy Trypsin Inhibitor), positively charged protein (Lysozyme and β-defensin), hydrophobic (Rh-integrin a4b7), human IgG, sticky protein (Rh-CD19). Proper controls are used in this experiment. Lead is flown over two surfaces, one is a blank and the other has a molecule directly immobilized. The response unit (RU) level is determined by subtracting the blank RU from the test surface RU. […] A response unit ≥100 predicts high risks for non-specific binding to charged/hydrophobic/IgG surfaces which would create challenges during manufacturing and translate to poor PK properties.

Rh-integrin a4b7 = target: T3, Rh-integrin a4b7 (UniProt P13612 34-977; P26010 20-723, limits assumed); test: Biacore 8K SPR, antibody over immobilised protein
T3 construct: rh read as recombinant human
Method: as §1

Human CD33 full length = Human CD33 full length (human, UniProt P20138 18-364); test: cell-based or functional assay
Chain of Human CD33 full length (P20138 18-364 limits assumed): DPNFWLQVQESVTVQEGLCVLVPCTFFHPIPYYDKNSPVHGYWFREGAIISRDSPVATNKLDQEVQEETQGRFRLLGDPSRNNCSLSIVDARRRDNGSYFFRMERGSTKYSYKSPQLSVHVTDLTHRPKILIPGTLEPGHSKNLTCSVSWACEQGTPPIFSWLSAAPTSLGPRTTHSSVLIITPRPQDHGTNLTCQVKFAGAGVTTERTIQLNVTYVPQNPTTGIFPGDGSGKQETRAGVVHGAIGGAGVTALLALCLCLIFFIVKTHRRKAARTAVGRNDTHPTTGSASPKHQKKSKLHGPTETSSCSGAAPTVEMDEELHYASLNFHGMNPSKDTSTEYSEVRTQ

Human CD33 ECD-HSA = target: T4, Human CD33 ECD-HSA (human); test: SPRi off-rate screen (IBIS MX96)
T4 construct: CD33 ECD fused at the C-terminus to monomeric HSA (C58S) and a six-histidine tag; also called C33W2; huCD33 ECD-HSA

[2] = target: T5, human PSMA on cells (LNCaP) (human, UniProt Q04609 1-750); test: flow cytometry, mammalian Fab supernatant on LNCaP cells, anti-human kappa-RPE
T5 construct: whole, on cells; also called LNCaP cells
T5 sequence (Q04609 whole entry): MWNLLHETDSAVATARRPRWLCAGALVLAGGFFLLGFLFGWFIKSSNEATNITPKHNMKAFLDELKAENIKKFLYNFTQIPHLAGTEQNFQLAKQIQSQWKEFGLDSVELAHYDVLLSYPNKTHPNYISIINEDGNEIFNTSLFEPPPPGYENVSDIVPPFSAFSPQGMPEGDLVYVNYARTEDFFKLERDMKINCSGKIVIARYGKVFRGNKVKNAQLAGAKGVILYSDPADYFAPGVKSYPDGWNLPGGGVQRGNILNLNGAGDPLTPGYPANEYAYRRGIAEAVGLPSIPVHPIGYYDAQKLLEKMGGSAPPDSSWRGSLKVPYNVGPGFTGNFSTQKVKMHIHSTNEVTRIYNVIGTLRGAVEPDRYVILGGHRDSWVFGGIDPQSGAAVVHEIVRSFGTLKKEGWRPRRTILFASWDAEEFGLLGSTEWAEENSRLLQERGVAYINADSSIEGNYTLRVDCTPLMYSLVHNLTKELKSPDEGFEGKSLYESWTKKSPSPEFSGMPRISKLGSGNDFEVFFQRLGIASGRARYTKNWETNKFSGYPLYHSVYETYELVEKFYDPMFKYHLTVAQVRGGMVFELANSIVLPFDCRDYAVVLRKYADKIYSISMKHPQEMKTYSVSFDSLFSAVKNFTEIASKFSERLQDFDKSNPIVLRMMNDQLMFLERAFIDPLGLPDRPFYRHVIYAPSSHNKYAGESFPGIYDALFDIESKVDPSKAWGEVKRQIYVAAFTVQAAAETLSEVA
Method: Individual Fab clones were isolated from the round 3 output of all panning experiments following pIX excision. Fab clones were tested for binding to chimp and cyno PSMA expressing HEK cells, as well as to human PSMA on LNCaP cells. Briefly, PSMA expressing cells were aliquoted into a V-bottom plate (CoStar 3357) at a density of 200,000 per well and incubated with (100 μl) supernatants expressing Fab fragments for 1 hour on ice. Cells were washed twice with PBS containing 2% FBS, and stained with a mouse anti-human kappa-RPE antibody (Life Technologies cat #MH10514) for 1 hour on ice. Cells were washed twice with PBS containing 2% FBS and resuspended in […] of the same wash buffer. Plates were read on a BD FACS Array flow cytometer. FACS data was analyzed in FlowJo software by live gating the healthy population of cells using forward scatter and side scatter, and then analyzing the cells within this gate for PE staining. Mean fluorescence intensity (MFI) was calculated and exported into Microsoft Excel. […] Fabs were sequenced and moved forward for cloning into mammalian expression vector for rescreening. True positives were selected from the binding of mammalian cell expressed Fab supernatants to PSMA-expressing cell lines.
FIGS. 22A, 22B, 22C and 22D show the titration curves for anti-PSMA panning hits vs. LNCaP cells. […] Binding profiles among hits were compared across cell lines expressing different species of PSMA.

[3] = target: human IL1RAP on NCI-H1975 cells (human); test: cell-based or functional assay

B1: TMEB757 (antibody, human IgG4 S228P, kappa, F234A L235A, V domains shown)
VH: EVQLLESGGGLVQPGGSLRLSCAASGFTFSSYSMSWVRQAPGKGLEWVSVISGSGGFTDYADSVKGRFTISRDNSKNTLYLHMNSLRAEDTAVYYCARMPLNSPHDYWGQGTLVTVSS
VL: AIQMTQSPSSLSASVGDRVTITCRASQGIRNDLGWYQQKPGKAPKLLIYAASSLQSGVPSRFSGSGSGTDFTLTISSLQPEDFATYYCLQDYNYPLTFGGGTKVEIKR
notes: IgG4 PAA anti-TMEFF2; re-engineered variant of TMEB675; also called TMEH460/B76L85; TMEFB757
[1]
  Kd: 0.31 nM
  koff: 0.000167 s⁻¹
  kon: 542000 M⁻¹ s⁻¹

B2: TMEB762 (antibody, human IgG4 S228P, kappa, F234A L235A, V domains shown)
VH: EVQLLESGGGLVQPGGSLRLSCAASGFTFSSYSMSWVRQAPGKGLEWVSVISGSGGFTDYADSVKGRFTISRDNSKNTLYLQMNSLRAEDTAVYYCARMPLNSPHDYWGQGTLVTVSS
VL: DIQMTQSPSSLSASVGDRVTITCRASQGIRNDLGWYQQKPGKAPKLLIYAASSLQSGVPSRFSGSGSGTDFTLTISSLQPEDFATYYCLQDYNYPLTFGGGTKVEIKR
notes: IgG4 PAA; also called TMEH459/DL3L129
Rh-CD19
  binding result: no binding (tested: response unit ≥100 predicts high risks)
Rh-integrin a4b7
  binding result: no binding (tested: response unit ≥100 predicts high risks)

B3: TMCB150 (bispecific antibody, human IgG4 S228P, kappa, lambda, F234A L235A)
heavy 1: not shown
light 1: not shown
heavy 2: QVQLQQSGPRLVRPSQTLSLTCAISGDSVFNNNAAWSWIRQSPSRGLEWLGRTYYRSKWLYDYAVSVKSRITVNPDTSRNQFTLQLNSVTPEDTALYYCARGYSSSFDYWGQGTLVTVSSASTKGPSVFPLAPCSRSTSESTAALGCLVKDYFPEPVTVSWNSGALTSGVHTFPAVLQSSGLYSLSSVVTVPSSSLGTKTYTCNVDHKPSNTKVDKRVESKYGPPCPPCPAPEAAGGPSVFLFPPKPKDTLMISRTPEVTCVVVDVSQEDPEVQFNWYVDGVEVHNAKTKPREEQFNSTYRVVSVLTVLHQDWLNGKEYKCKVSNKGLPSSIEKTISKAKGQPREPQVYTLPPSQEEMTKNQVSLTCLVKGFYPSDIAVEWESNGQPENNYKTTPPVLDSDGSFLLYSKLTVDKSRWQEGNVFSCSVMHEALHNHYTQKSLSLSLGK
light 2: QSALTQPASVSGSPGQSITISCTGTSSNIGTYKFVSWYQQHPDKAPKVLLYEVSKRPSGVSSRFSGSKSGNTASLTISGLQAEDQADYHCVSYAGSGTLLFGGGTKLTVLGQPKAAPSVTLFPPSSEELQANKATLVCLISDFYPGAVTVAWKADSSPVKAGVETTTPSKQSNNKYAASSYLSLTPEQWKSHRSYSCQVTHEGSTVEKTVAPTECS
notes: IgG4 PAA; also called TMEB762×CD3B376
Rh-CD19
  binding result: no binding (tested: response unit ≥100 predicts high risks)
Rh-integrin a4b7
  binding result: no binding (tested: response unit ≥100 predicts high risks)

B4: C3CB103 (bispecific antibody, IgG4, V domains shown)
VH 1: QVQLVESGGGVVQPGRSLRLSCVASGFTFSSYGMHWVRQAPGKGLEWVAVISYDGSNKYYADSVKGRFTISRDNSKNTLYLQMNSLRAEGTAVYYCAKDFRSFDWLPPDSASYHGMDVWGQGTTVTVSS
VL 1: SYELTQPPSVSVSPGQTASITCSGDKLGDKYACWYQQKPGQSPVLVIYQDGKRPSGIPERFSGSNFGNKATLTISGTQAMDEADYYCQAWDRNTVVFGGGTKLTVL
VH 2: QVQLQQSGPRLVRPSQTLSLTCAISGDSVFNNNAAWSWIRQSPSRGLEWLGRTYYRSKWLYDYAVSVKSRITVNPDTSRNQFTLQLNSVTPEDTALYYCARGYSSSFDYWGQGTLVTVSS
VL 2: QSALTQPASVSGSPGQSITISCTGTSSNIGTYKFVSWYQQHPDKAPKVLLYEVSKRPSGVSSRFSGSKSGNTASLTISGLQAEDQADYHCVSYAGSGTLLFGGGTKLTVL
Human CD33 full length
  Primary AML Cell Killing EC50: 4.19 nM

B5: C3CB102 (bispecific antibody, IgG4, V domains shown)
VH 1: not shown
VL 1: SYELTQPPSVSVSPGQTASITCSGNKLGAKFASWYQQKPGQSPVLVIYQDNKRPSGIPERFSGSNSGNTATLTISGTQAVDEADYYCQAWDSSTVVFGGGTKLTVL
VH 2: QVQLQQSGPRLVRPSQTLSLTCAISGDSVFNNNAAWSWIRQSPSRGLEWLGRTYYRSKWLYDYAVSVKSRITVNPDTSRNQFTLQLNSVTPEDTALYYCARGYSSSFDYWGQGTLVTVSS
VL 2: QSALTQPASVSGSPGQSITISCTGTSSNIGTYKFVSWYQQHPDKAPKVLLYEVSKRPSGVSSRFSGSKSGNTASLTISGLQAEDQADYHCVSYAGSGTLLFGGGTKLTVL
Human CD33 full length
  Primary AML Cell Killing EC50: 4.97 nM

B6: C33B782 (antibody, IgG4, V domains shown)
VH: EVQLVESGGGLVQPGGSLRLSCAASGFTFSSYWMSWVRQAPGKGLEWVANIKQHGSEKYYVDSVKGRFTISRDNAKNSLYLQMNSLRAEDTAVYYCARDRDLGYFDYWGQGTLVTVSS
VL: SYELTQPPSVSVSPGQTASITCSGNKLGAKFASWYQQKPGQSPVLVIYQDNKRPSGIPERFSGSNSGNTATLTISGTQAVDEADYYCQAWDSSTVVFGGGTKLTVL
notes: also called C33H72/C33L40; C33F82
Human CD33 ECD-HSA
  koff: 0.000258 s⁻¹

B7: C3CB97 (bispecific antibody, IgG4, V domains shown)
VH 1: QVQLVQSGSELRKPGASVKVSCKASGYTFTNYAMNWVRQAPGQGLEWMGWINTNTGNPTYAQGFTGRFVFSLDTSVSSAYLQISSLKAEDTAMYYCATDRDRGTDYWGQGTLVTVSS
VL 1: QSALTQPASVSGSPGQSITISCTGTSSDVGDYNYVSWYQQHPGKVPKLMIYDVSNRPSGVSNRFSGSMSGNTASLTISGLQAEDEADYYCSSYSSSSALEVFGGGTKLTVL
VH 2: QVQLQQSGPRLVRPSQTLSLTCAISGDSVFNNNAAWSWIRQSPSRGLEWLGRTYYRSKWLYDYAVSVKSRITVNPDTSRNQFTLQLNSVTPEDTALYYCARGYSSSFDYWGQGTLVTVSS
VL 2: QSALTQPASVSGSPGQSITISCTGTSSNIGTYKFVSWYQQHPDKAPKVLLYEVSKRPSGVSSRFSGSKSGNTASLTISGLQAEDQADYHCVSYAGSGTLLFGGGTKLTVL
Human CD33 full length
  Primary AML Cell Killing EC50: ~0.232 nM

B8: C33B792 (antibody, IgG4, V domains shown)
VH: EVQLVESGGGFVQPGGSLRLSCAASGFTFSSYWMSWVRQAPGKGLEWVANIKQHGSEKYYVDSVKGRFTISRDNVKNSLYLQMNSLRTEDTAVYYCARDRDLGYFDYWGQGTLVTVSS
VL: SYELTQPPSVSVSPGQTASITCSGDKLGNKYASWYQQKPGQSPVLVIYQDTKRPSGIPERVSGSNSGNTATLTISGTQAMDEADYHCQAWDSSTVVFGGGTKLTVL
notes: also called C33H87/C33L35; C33F92
Human CD33 ECD-HSA
  koff: 0.000427 s⁻¹

B9: PSMM81 (Fab, V domains shown)
VH: QVQLVQSGAEVKKPGSSVKVSCKASGGTFDDYAISWVRQAPGQGLEWMGRIDPIEGTANYAQKFQGRVTITADESTSTAYMELSSLRSEDTAVYYCARDRYYYDGVYWYSDYFDYWGQGTLVTVS
VL: not shown
notes: Mammalian Fab supernatant; also called PSMB80
[2]
  EC50 (read off the curve): ~0.08 µg/mL

B10: IC3B19 (bispecific antibody, human IgG4 S228P, kappa, F234A L235A)
heavy: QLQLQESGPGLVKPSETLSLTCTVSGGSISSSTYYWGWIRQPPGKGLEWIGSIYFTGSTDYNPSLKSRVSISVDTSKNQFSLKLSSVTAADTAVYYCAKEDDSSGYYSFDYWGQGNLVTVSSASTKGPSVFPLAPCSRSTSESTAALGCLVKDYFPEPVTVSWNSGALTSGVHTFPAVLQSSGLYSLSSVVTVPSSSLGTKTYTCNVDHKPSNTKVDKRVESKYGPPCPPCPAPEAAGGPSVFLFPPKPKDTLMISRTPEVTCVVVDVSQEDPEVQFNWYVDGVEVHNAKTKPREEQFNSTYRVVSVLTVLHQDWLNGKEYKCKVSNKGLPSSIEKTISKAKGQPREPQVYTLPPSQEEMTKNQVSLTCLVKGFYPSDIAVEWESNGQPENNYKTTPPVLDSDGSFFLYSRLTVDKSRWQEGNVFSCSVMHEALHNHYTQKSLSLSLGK
light: DIQLTQSPSFLSASVGDRVTITCRASQGISSYLAWYQQKPGKAPKLLIYAASTLQSGVPSRFSGSGSGTEFTLTISSLQPEDFATYYCQQVNSYPLTFGGGTKVEIKRTVAAPSVFIFPPSDEQLKSGTASVVCLLNNFYPREAKVQWKVDNALQSGNSQESVTEQDSKDSTYSLSSTLTLSKADYEKHKVYACEVTHQGLSSPVTKSFNRGEC
VH: EVQLVESGGGLVQPGGSLRLSCAASGFTFNTYAMNWVRQAPGKGLEWVARIRSKYNNYATYYAASVKGRFTISRDDSKNSLYLQMNSLKTEDTAVYYCARHGNFGNSYVSWFAYWGQGTLVTVSS
VL: QTVVTQEPSLTVSPGGTVTLTCRSSTGAVTTSNYANWVQQKPGQAPRGLIGGTNKRAPGTPARFSGSLLGGKAALTLSGVQPEDEAEYYCALWYSNLWVFGGGTKLTVL
[3]
  cytotoxicity EC50, caspase 3/7 assay, NCI-H1975 cells with pan T cells: 0.018 nM

Reference: patent US20230322924A1 (Janssen / Centocor, published 2023)
